Data on 12 molecules can be found in US20260098059A1 (ENDOMET BIOSCIENCES, published 2026).

Values joined by “and” are separate entries in the source; they are usually repeats but may differ in a detail not shown here. Equal values may be shown once. Bridges are numbered along the chain shown (N, C = ends). Where no end group is shown, it is not given here. [ ]: non-standard residue; d: D form. Chg = N[C@H](C(=O)O)C1CCCCC1; NMeA = CN[C@@H](C)C(=O)O Some results are limits rather than exact numbers.

To fix the notation:
T1: β-catenin (UniProt P35222 134-665, limits assumed, biotinylated in the SPR and plate assays)
T1 construct: also called beta catenin; biotinylated β-catenin
T1 sequence (looked up): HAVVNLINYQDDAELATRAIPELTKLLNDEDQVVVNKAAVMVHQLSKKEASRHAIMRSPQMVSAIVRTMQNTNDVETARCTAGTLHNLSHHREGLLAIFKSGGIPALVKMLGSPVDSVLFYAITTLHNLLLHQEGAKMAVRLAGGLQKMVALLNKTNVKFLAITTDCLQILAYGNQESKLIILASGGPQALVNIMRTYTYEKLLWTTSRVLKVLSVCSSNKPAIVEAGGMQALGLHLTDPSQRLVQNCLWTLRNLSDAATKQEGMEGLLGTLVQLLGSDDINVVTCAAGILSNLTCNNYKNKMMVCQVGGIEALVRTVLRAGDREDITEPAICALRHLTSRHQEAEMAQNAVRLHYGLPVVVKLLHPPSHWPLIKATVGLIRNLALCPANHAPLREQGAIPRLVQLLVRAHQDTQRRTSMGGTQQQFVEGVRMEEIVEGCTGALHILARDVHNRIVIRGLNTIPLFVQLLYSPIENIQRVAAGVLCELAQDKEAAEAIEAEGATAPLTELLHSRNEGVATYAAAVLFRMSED

B1: SEQ ID NO: 423 (peptide)
peptide: WAQXILDEHGQRVWG
HELM: PEPTIDE1{W.[meA].Q.[Orn].I.L.D.E.H.[O=C([C@@H](N[*:1])C1CCCCC1)[*:2]].Q.R.V.W.G.[am]}$PEPTIDE1,PEPTIDE1,4:R3-8:R3$$$V2.0
SMILES: CC[C@H](C)[C@@H]1NC(=O)[C@@H](NC(=O)[C@H](CCC(N)=O)NC(=O)[C@H](C)N(C)C(=O)[C@@H](N)Cc2c[nH]c3ccccc23)CCCNC(=O)CC[C@@H](C(=O)N[C@@H](Cc2c[nH]cn2)C(=O)N[C@H](C(=O)N[C@@H](CCC(N)=O)C(=O)N[C@@H](CCCNC(=N)N)C(=O)N[C@H](C(=O)N[C@@H](Cc2c[nH]c3ccccc23)C(=O)NCC(N)=O)C(C)C)C2CCCCC2)NC(=O)[C@H](CC(=O)O)NC(=O)[C@H](CC(C)C)NC1=O
B2: SEQ ID NO: 429 (peptide)
peptide: RRWPQKILDEHVRRVWR
HELM: PEPTIDE1{[ac].R.R.W.P.Q.K.I.L.D.E.H.V.R.R.V.W.R.[am]}$PEPTIDE1,PEPTIDE1,7:R3-11:R3$$$V2.0
SMILES: CC[C@H](C)[C@@H]1NC(=O)[C@@H](NC(=O)[C@H](CCC(N)=O)NC(=O)[C@@H]2CCCN2C(=O)[C@H](Cc2c[nH]c3ccccc23)NC(=O)[C@H](CCCNC(=N)N)NC(=O)[C@H](CCCNC(=N)N)NC(C)=O)CCCCNC(=O)CC[C@@H](C(=O)N[C@@H](Cc2c[nH]cn2)C(=O)N[C@H](C(=O)N[C@@H](CCCNC(=N)N)C(=O)N[C@@H](CCCNC(=N)N)C(=O)N[C@H](C(=O)N[C@@H](Cc2c[nH]c3ccccc23)C(=O)N[C@@H](CCCNC(=N)N)C(N)=O)C(C)C)C(C)C)NC(=O)[C@H](CC(=O)O)NC(=O)[C@H](CC(C)C)NC1=O
B3: SEQ ID NO: 417 (peptide)
peptide: WAXKILDEHGQRVWG
HELM: PEPTIDE1{W.[meA].[Aib].K.I.L.D.E.H.[O=C([C@@H](N[*:1])C1CCCCC1)[*:2]].Q.R.V.W.G.[am]}$PEPTIDE1,PEPTIDE1,4:R3-8:R3$$$V2.0
SMILES: CC[C@H](C)[C@@H]1NC(=O)[C@@H](NC(=O)C(C)(C)NC(=O)[C@H](C)N(C)C(=O)[C@@H](N)Cc2c[nH]c3ccccc23)CCCCNC(=O)CC[C@@H](C(=O)N[C@@H](Cc2c[nH]cn2)C(=O)N[C@H](C(=O)N[C@@H](CCC(N)=O)C(=O)N[C@@H](CCCNC(=N)N)C(=O)N[C@H](C(=O)N[C@@H](Cc2c[nH]c3ccccc23)C(=O)NCC(N)=O)C(C)C)C2CCCCC2)NC(=O)[C@H](CC(=O)O)NC(=O)[C@H](CC(C)C)NC1=O
B4: SEQ ID NO: 434 (peptide)
peptide: [NMeA]QKILNEH[Chg]QRVWG-NH2
modifications: lactam 3-7; not fully specified (N-terminus); printed as H23C11C(O)NH-NMeA-QK*ILNE*H-Chg-QRVWG-NH2
B5: SEQ ID NO: 446 (peptide)
peptide: WAQKILDEHGQRVW
HELM: PEPTIDE1{[ac].W.[meA].Q.K.I.L.D.E.H.[O=C([C@@H](N[*:1])C1CCCCC1)[*:2]].Q.R.V.W.[am]}$PEPTIDE1,PEPTIDE1,5:R3-9:R3$$$V2.0
SMILES: CC[C@H](C)[C@@H]1NC(=O)[C@@H](NC(=O)[C@H](CCC(N)=O)NC(=O)[C@H](C)N(C)C(=O)[C@H](Cc2c[nH]c3ccccc23)NC(C)=O)CCCCNC(=O)CC[C@@H](C(=O)N[C@@H](Cc2c[nH]cn2)C(=O)N[C@H](C(=O)N[C@@H](CCC(N)=O)C(=O)N[C@@H](CCCNC(=N)N)C(=O)N[C@H](C(=O)N[C@@H](Cc2c[nH]c3ccccc23)C(N)=O)C(C)C)C2CCCCC2)NC(=O)[C@H](CC(=O)O)NC(=O)[C@H](CC(C)C)NC1=O
B6: SEQ ID NO: 424 (peptide)
peptide: WAQXILDEHGQRVWG
HELM: PEPTIDE1{[ac].W.[meA].Q.[Orn].I.L.D.E.H.[O=C([C@@H](N[*:1])C1CCCCC1)[*:2]].Q.R.V.W.G.[am]}$PEPTIDE1,PEPTIDE1,5:R3-9:R3$$$V2.0
SMILES: CC[C@H](C)[C@@H]1NC(=O)[C@@H](NC(=O)[C@H](CCC(N)=O)NC(=O)[C@H](C)N(C)C(=O)[C@H](Cc2c[nH]c3ccccc23)NC(C)=O)CCCNC(=O)CC[C@@H](C(=O)N[C@@H](Cc2c[nH]cn2)C(=O)N[C@H](C(=O)N[C@@H](CCC(N)=O)C(=O)N[C@@H](CCCNC(=N)N)C(=O)N[C@H](C(=O)N[C@@H](Cc2c[nH]c3ccccc23)C(=O)NCC(N)=O)C(C)C)C2CCCCC2)NC(=O)[C@H](CC(=O)O)NC(=O)[C@H](CC(C)C)NC1=O
B7: SEQ ID NO: 433 (peptide)
peptide: AQKILNEHGQRVWG
HELM: PEPTIDE1{[ac].[meA].Q.K.I.L.N.E.H.[O=C([C@@H](N[*:1])C1CCCCC1)[*:2]].Q.R.V.W.G.[am]}$PEPTIDE1,PEPTIDE1,4:R3-8:R3$$$V2.0
SMILES: CC[C@H](C)[C@@H]1NC(=O)[C@@H](NC(=O)[C@H](CCC(N)=O)NC(=O)[C@H](C)N(C)C(C)=O)CCCCNC(=O)CC[C@@H](C(=O)N[C@@H](Cc2c[nH]cn2)C(=O)N[C@H](C(=O)N[C@@H](CCC(N)=O)C(=O)N[C@@H](CCCNC(=N)N)C(=O)N[C@H](C(=O)N[C@@H](Cc2c[nH]c3ccccc23)C(=O)NCC(N)=O)C(C)C)C2CCCCC2)NC(=O)[C@H](CC(N)=O)NC(=O)[C@H](CC(C)C)NC1=O
B8: SEQ ID NO: 419 (peptide)
peptide: AWAQKILDEHGQRVWG
HELM: PEPTIDE1{[ac].[bAla].W.[meA].Q.K.I.L.D.E.H.[O=C([C@@H](N[*:1])C1CCCCC1)[*:2]].Q.R.V.W.G.[am]}$PEPTIDE1,PEPTIDE1,6:R3-10:R3$$$V2.0
SMILES: CC[C@H](C)[C@@H]1NC(=O)[C@@H](NC(=O)[C@H](CCC(N)=O)NC(=O)[C@H](C)N(C)C(=O)[C@H](Cc2c[nH]c3ccccc23)NC(=O)CCNC(C)=O)CCCCNC(=O)CC[C@@H](C(=O)N[C@@H](Cc2c[nH]cn2)C(=O)N[C@H](C(=O)N[C@@H](CCC(N)=O)C(=O)N[C@@H](CCCNC(=N)N)C(=O)N[C@H](C(=O)N[C@@H](Cc2c[nH]c3ccccc23)C(=O)NCC(N)=O)C(C)C)C2CCCCC2)NC(=O)[C@H](CC(=O)O)NC(=O)[C@H](CC(C)C)NC1=O
B9: SEQ ID NO: 426 (peptide)
peptide: WAQEILDKHGQRVWG
HELM: PEPTIDE1{[ac].W.[meA].Q.E.I.L.D.K.H.[O=C([C@@H](N[*:1])C1CCCCC1)[*:2]].Q.R.V.W.G.[am]}$PEPTIDE1,PEPTIDE1,5:R3-9:R3$$$V2.0
SMILES: CC[C@H](C)[C@@H]1NC(=O)[C@@H](NC(=O)[C@H](CCC(N)=O)NC(=O)[C@H](C)N(C)C(=O)[C@H](Cc2c[nH]c3ccccc23)NC(C)=O)CCC(=O)NCCCC[C@@H](C(=O)N[C@@H](Cc2c[nH]cn2)C(=O)N[C@H](C(=O)N[C@@H](CCC(N)=O)C(=O)N[C@@H](CCCNC(=N)N)C(=O)N[C@H](C(=O)N[C@@H](Cc2c[nH]c3ccccc23)C(=O)NCC(N)=O)C(C)C)C2CCCCC2)NC(=O)[C@H](CC(=O)O)NC(=O)[C@H](CC(C)C)NC1=O
B10: SEQ ID NO: 427 (peptide)
peptide: W[NMeA]QEILDKH[Chg]QRVWG-NH2
modifications: lactam 4-8; not fully specified (N-terminus); printed as H17C8C(O)NH-W-NMeA-QE*ILDK*H-Chg-QRVWG-NH2
B11: SEQ ID NO: 425 (peptide)
peptide: WAQXILDEHGQRVWG
HELM: PEPTIDE1{[CCCCCCCCC(=O)[*:2]].W.[meA].Q.[Orn].I.L.D.E.H.[O=C([C@@H](N[*:1])C1CCCCC1)[*:2]].Q.R.V.W.G.[am]}$PEPTIDE1,PEPTIDE1,5:R3-9:R3$$$V2.0
SMILES: CCCCCCCCC(=O)N[C@@H](Cc1c[nH]c2ccccc12)C(=O)N(C)[C@@H](C)C(=O)N[C@@H](CCC(N)=O)C(=O)N[C@H]1CCCNC(=O)CC[C@@H](C(=O)N[C@@H](Cc2c[nH]cn2)C(=O)N[C@H](C(=O)N[C@@H](CCC(N)=O)C(=O)N[C@@H](CCCNC(=N)N)C(=O)N[C@H](C(=O)N[C@@H](Cc2c[nH]c3ccccc23)C(=O)NCC(N)=O)C(C)C)C2CCCCC2)NC(=O)[C@H](CC(=O)O)NC(=O)[C@H](CC(C)C)NC(=O)[C@H]([C@@H](C)CC)NC1=O
B12: SEQ ID NO: 414 (peptide)
peptide: WAQKILDEHGXRVWG
HELM: PEPTIDE1{[ac].W.[meA].Q.K.I.L.D.E.H.[O=C([C@@H](N[*:1])C1CCCCC1)[*:2]].[Aib].R.V.W.G.[am]}$PEPTIDE1,PEPTIDE1,5:R3-9:R3$$$V2.0
SMILES: CC[C@H](C)[C@@H]1NC(=O)[C@@H](NC(=O)[C@H](CCC(N)=O)NC(=O)[C@H](C)N(C)C(=O)[C@H](Cc2c[nH]c3ccccc23)NC(C)=O)CCCCNC(=O)CC[C@@H](C(=O)N[C@@H](Cc2c[nH]cn2)C(=O)N[C@H](C(=O)NC(C)(C)C(=O)N[C@@H](CCCNC(=N)N)C(=O)N[C@H](C(=O)N[C@@H](Cc2c[nH]c3ccccc23)C(=O)NCC(N)=O)C(C)C)C2CCCCC2)NC(=O)[C@H](CC(=O)O)NC(=O)[C@H](CC(C)C)NC1=O

The assay has as its target T1, β-catenin. Kind of assay: competitive FP. A digest of the protocol:
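Competitive fluorescence polarization with inhibitor peptide serially diluted from 10 nM to 30 uM; polarization read at 470 nm excitation, 520 nm emission. Experiments performed three times.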
Regarding B1, the equilibrium dissociation constant (Kd) (in general, the equilibrium constant for the complex coming apart) was > 400 nM and ≤ 1000 nM.

As for B2, the Kd was > 400 nM and ≤ 1000 nM.

In the case of B3, the Kd was at most 400 nM.

B4 registered an equilibrium dissociation constant (Kd) of at most 400 nM.

B5 had a Kd of at most 400 nM.

B6 returned a Kd of at most 400 nM.

With B7, the dissociation constant (Kd) is > 400 nM and ≤ 1000 nM.

Take B8: the dissociation constant Kd is at most 400 nM.

Molecule B9 had an equilibrium dissociation constant (Kd) of at most 400 nM.

The molecule B10 had a Kd of at most 400 nM.

The molecule B11 returned a dissociation constant Kd of at most 400 nM.

Molecule B12 had a dissociation constant Kd of at most 400 nM.
